# Measured values taken from paper PMC7381529 (Protein & Cell, 2020).
# Where “and” joins values, the source holds several entries; their conditions need not be identical. Identical values can stand only once.
# B1: African swine fever virus p15 (mature protein p15, wild type) (natural protein)
# chain: MPSNMKQFCKISVWLQQHDPDLLEIINNLCMLGNLSAAKYKHGVTFIYPKQAKIRDEIKKHAYSNDPSQAIKTLESLILPFYIPTPAEFTGEIGSYTGVKLEVEKTEANKVILKNGEAVLVPAADFKPFPDRRLAVWIMESGSMPLEGPPYKRKKEGG
# Molecular target: the molecule itself
# Assay: crystal structure
protein,measurement,value
B1,stoichiometry N,2 and 6
